# Data: the domain aggregation screens of Martell et al. (2025)
# Test: soluble fraction after stress (log2 fold change); higher = more stays soluble; pooled small domains, quantitative proteomics
# Settings: stress: pH 4
# Method in brief: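 Pooled custom libraries of small protein domains were subjected to pH 4 and measured by high-throughput quantitative proteomics. The log2 fold change in soluble amount per domain is reported, higher values meaning more remained soluble. This is used as a measure of aggregation propensity.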
row,Sequence,soluble fraction (log2)
1,HMRPYAYGTGRRKSSTARVHLIPNGSGSITINGRTLDEYFGLETLKLIVRQPLAATETAEKFDVEATVV,-0.509
2,HMRQDEKTLLYWIGAQVKREGKLIKTSTAQYLVEKTGTDMENLEKELEKLFAYTLDEKEITPAAIDEI,-1.21
3,HMRQIRELFRLKFGSLLPTSDRQIAAQLGVARSTVAEYLERARAAGLSWPLPLDLSDADLEERLFA,≥ 0.43
4,HMRQMSEELQSAKEALEDRRTQEKAVLLLMEHRNISNDEAHRLLRKLAMDQGKRLPEVARALVSMAGVL,-0.203
5,HMRQSKMREAILAAVSAQKLEISDLHVWRIGEQRYAAIIGLATTQAESVSALRDSLAQMDKLVHLTIDQ,-1.16
6,HMRQTGWVTADSLNVRARPSLQAERVEKVTYGQQVQIMFKQGQWYQIATENGKIGWVSSEYIAAVSP,0.0725
7,HMRRELDSEHKRQEILFAAKRLLLAEGYDATSMSRLAKEAGVAPNTLYWYFKDKDELLIAILDELVAE,-1.09
8,HMRRGKLGMASRLEQIPGIGPKKRKALLKAFGNSIDAIKSAPVEDLMKVKGINLVLAESIKEL,0.374
9,HMRRMTEEQSKLFQGLVSIVQTTLVADMEKGAVTPLLIAEKVDFVADNLYPGKDIDRKEAVAELIRRFSLW,-0.875
10,HMRRSKQERQQAIKTLISNEQIQRQEDLVRKLNEAGWEVTQATISRDITEMQLVKVPLPTGGFAYAVM,-0.31
11,HMRRSKVMLESILDEIPQMGQARRAALLEQFGSVAALRKASLAEIAMTPGIGEKIAVIIFEYLQKSSH,-0.067
12,HMRRTEKEIEQDVMRAIATIISEKGISSVTIKEVSNLSKTDVIVLERRFKNDEGLIKAYTSQ,0.0814
13,HMRSFADEGTVEEWIKQAIRENEAAVADYRKGKETAVKFLMGQVMRLSKGEANPADLEDKIKAKLD,0.025
14,HMRSFGTVAQARGRWKAFYVGPDKRRHTPGVTFSNPIRAQGWLAQELTLIELGQWTPPAQRREKAEVAS,-0.43
15,HMRSIVETLTDRELEIFQLIGNGFSTGEIARRLNLSPHTIETHRKNIKDKLGLSSGSELNKQAIQWVLSS,-1.15
16,HMRSKTSYAVWTPIQIDAGSQMQALQSKGFNTVLMEGGISVGIRSDKAQAQALLNRLQGAGFTGQLREVN,0.259
17,HMRSLATFEEEKIALRFWNYLQSEGIKSTLEEEGPRDWVIWVIDEEKIPSATQSLEKFNLNPDDPAFSN,-0.137
18,HMRSLVDRSVQAVTDHIRENALRVGDSLPGEAYFATSLGVSRAVMREAFGALAALRVIDVGNGRKPRVGAI,-0.438
19,HMRSMEKRLTAKVKRVQEGVQAKSQAGEQPFEVVKLMQRFPKLMQFGKHAEAETVLDKALELLGEE,-0.373
20,HMRSQLALVVRTGESQRLDNFLVNNLAWKSRNRLQGLIREGLVTVNGEKTKASRRVHLDDLVEIHL,-0.0501
21,HMRSTIYEFTVPPGQLESIRLDVYITSFVENATRSKVQEAIKQGYVWVNGKHEKASYTMLPGDKIYIELPI,-0.497
22,HMRSVEVAAEPGMVLEDRQTGFVGAVVAVEKSGGTHLVVLEDRHGLRRGFPLGPGFWLEGRPVVLAPPP,-0.141
23,HMRTANREKRIEASVKMMKAGYPVGYIIARVFMYEGWEEDYRQLLIYLSEKIPKDVSNPITFEVIS,-0.317

row,Sequence,soluble fraction (log2)
1,HMRTEGNLGAKVRVLRRSQGMTQAELARRLGISPSYLNLIEHNRRSFTADLLVKLAKILPVNLKT,0.04
2,HMRTITYSITPAHAGMSVERYLKQQHGYSTRTLVKLKHYPQGLQLNGQHARTVDLLQAGDTLAVTFLD,0.145
3,HMRTLSAGVAGRLRADILNGLLEPGRRLGMAELTERYGAGMSPVREALSRLVGEGLVQSEGQRGFRVA,0.199
4,HMRTMFGQRLRLARKRAGLSMQALADRVTPSVSAQAISKYEADQMMPSSSVLVGLGKALGVSLDFLVGGQ,-0.238
5,HMRTNVDISPKILEWVLSQVRNRTTNDVIETIQIWIKGEKPPTFNQVEKISKATGVPLGYFFLKTPPVED,-0.684
6,HMRTPLTGREEQVATLIGRGMTNSEIAESLSVDESTVKTHIGSILRKVHLRDRLQVALWFHGLPIE,-0.354
7,HMRTTYKTRLETLLAGPMSAGDRRFASSLLDFYNRKNRLTPGRARFVAQLEDRYSAEALAARQG,-0.00949
8,HMRTVEQFQIRKIYAISNALGISDSRADEDELHVLVSGLTGKDSIKELTYREASVVIERLEELQ,-0.62
9,HMRVDDITDTILNVLKEQGGFISVTDKSSPETINKLFGVSKKTYKKAIGAIYRKKLIIIEDDGIRLNS,-0.219
10,HMRVDRSALDSIPGVGPGRKRTLLHHFGSARAVEASGLADLESIRGISKALARKIYDFFHPE,0.161
11,HMRVELVVVPELRQQLLPEARELANSAGLQLRVRGQSPADETRTIVVTQSPAAGTRVAARSIVLVE,0.338
12,HMRVPTVIGMDEGTAKATLANASLKSNIVYESDETKENGKVLSQGIEQNKEVKAGTTVEIKVNKIE,0.22
13,HMRVTEVSYDKFLDMLSGGQVTVVELQENERELYFKAADENGAERIYSTGVFPDADLQKRLSESGVTF,-1.19
14,HMRYLHTMIRVSDLEESLNFFKLLDIHEVSRKENEQARFTLVFLSATGDEKLVENAKSPLIELTFN,-0.471
15,HMRYLMPDLVNRRYEPVRSLLEARGIRFGNVIFEPYEGLPPGIVLRQDPPAGHPLPRRRTVSLVVSGPGGR,0.109
16,HMRYQIAEARKLRDITQAELAEKMGTTQQTIQRYETNQVNIRMDKMIEMSEILNVSLAYLLGMSSSPEL,0.122
17,HMRYVVQVATFSSKNNAIRAADDLAGFVVVSNGYYRVRTGPYADRGEANAALAKARKAGYTDAFVDTS,0.0704
18,HMSAAYVYVTGTRVNQRDGPSTFDRVMGVLVEGTRVQLLRDQGQWAQIRSDLGTGWLSSGFLSRNG,0.0158
19,HMSADKAEAAEASLKSFNLRLQAAAMEAGKTFAPVTADQYAEYKAAWGTYIRKGIEGLSESEKKTINVG,-0.167
20,HMSAETREELVGREGVSLTDLRPSGFALFGQEKIDVVSESEFIEEGTSVRIVSVEGSRHIVRAKR,-1.24
21,HMSAISSARKEKIIEYLTDHGSARSSEIAEYVDLRPSRVRDYLGELVREDIVVAEGANRNRTYRLK,0.409
22,HMSAPGYRAVYPGMLESERQTAYELLSSSGFDVKINTSSGELEVTTDRYHEARMVMASQNIPK,-1.18
23,HMSAPVFRITPAGVVVNGLKRSDILTLTRIDGAMNTLPHNAGEVLVSTEGLAKGVYVITAGGKSLKFLV,0.00157

row,Sequence,soluble fraction (log2)
1,HMSAQPMEYSRFYSDVTQGRVAEVEIEGREINGRLSTGERFKTFSPETDNKALIGHLLDNGVVIEGKPP,0.0726
2,HMSASEKLFEARKNLNIVNVLGKNPVDRYDIVKILKHGDHYHIYDSKGNEGITYTNPKSLYPEAEFGEYQG,-0.228
3,HMSASTGTVSYKSGATTVWNSPSWHQVKRYVTFGDTVQLLGKTVDQNGATWYKVGDNQWIPELYLNVAG,-0.486
4,HMSATEPVHFDPNKSPEDMTVEELQAGILAKMANNGPVSDQMKKTVNENIWHDSLVNWLKSF,-0.0828
5,HMSATPQRMSIINELDSARKNLSAYDLRDSLKDKGHSFNISTIYRVLSFWIDVGVVHKMDSSNTYL,-0.315
6,HMSATVLVHVLGEVRKPGVVSLPEGSRVQDAITAAGGLTSRAKPGDLNLAARVSDGAQLVIGRSGSQVRTT,0.103
7,HMSAVVAPLPGLIQNILVKVGDTVHAGQHVLTMEAMKMENEIQTNRDGIIKDIKVRIGDSVNEGDTLIIL,-0.311
8,HMSDAGAIEPTIKEILASNPKAVEEYLAGNIKNINALIGQSMKALHGKADPQTVRNLLAKLLDEM,-0.487
9,HMSDAIQLEQKIGLEAIEWYLALSEQTDDKLLYQQWQSWLAADPQHQLAWSRIEQVNHGLNTL,-0.9
10,HMSDAVQLGLRLRAARERRGLSQQAVADALGLPRTAVTNMESGNRAVSTLELTKLAALYGQSTAFFLSP,0.291
11,HMSDDVELLGRLSDREVSVLQYLSQGYSNKQISEQMFISNKTVSTYKARLLLKLNAGSLVDLIEFAKRNTL,-0.961
12,HMSDEINYVIQINGKNRAEAEFGANLDKESIENLALEHERIKELLNGLTVRKIIVVPKKLVNIVA,0.178
13,HMSDESALLELVKQIIADNPKAVEEIRAGKEKAMGFLIGQAMKASRGSANPQIISRLVREQLG,0.0495
14,HMSDFDPTLILDLIKGSGEALTKREIARALGIKGGDKRIELKSHLKSMEAEGVIVKQAGGAYSVP,-0.00302
15,HMSDFSNLNLLELNSSELDLLLRRASSQGLTQMDLLKMARSQGLSEADLIKVKGKIDTSESIKR,-0.0416
16,HMSDFSSNLRRLRKRAGLSQDALAEKLSVARQTVSSWERGNSYPDLDMLVRISDALATDPNELLYPN,0.0655
17,HMSDGDFLQKIAEEILAQFPDKVKEYQKGKKGLIGFFMGELMKRSKGKADPKVATRILEEILSEKNGSS,-0.609
18,HMSDGTVYGSDGVIKVNLPQSGMLRIYATDGTTLVNRWQAAGIDTISMPRGLYIVRFDNQVWKVVV,0.00982
19,HMSDHSSLAGKEGVAVTPLRPAGTAEIDGKRMDVVTMGDYIKAGDHIKVVKVEGNRIIVAKN,-0.0102
20,HMSDHYEVLGVDRNATDDQIKKAYRRLARELHPDVNDAPESQEKFKLVTHAYEVLSDPDERRKYDMG,0.056
21,HMSDIYSLFERELGRTLSSYEYEIIGKWIEKGVSEDTIKRALKEAILNGVTNFKYIDKIIYDWSKN,-1.05
22,HMSDLFKYSPYKTLTEEQYKITYQIIERLKTDLSNGIPRISIIDGGAGTGKSILGIFLLKLLVDAQN,0.321
23,HMSDNLSASERKALSHMEGMESVRSSEVADLLGMSQRGAQKLLNRLVDKGLASSFGANRNRRYSVE,0.111
